From article PMC6113619 come the findings set out here.

The data set has as its target T1, QscR (Pseudomonas aeruginosa PAO1?) (UniProt G3XD77).
T1 sequence: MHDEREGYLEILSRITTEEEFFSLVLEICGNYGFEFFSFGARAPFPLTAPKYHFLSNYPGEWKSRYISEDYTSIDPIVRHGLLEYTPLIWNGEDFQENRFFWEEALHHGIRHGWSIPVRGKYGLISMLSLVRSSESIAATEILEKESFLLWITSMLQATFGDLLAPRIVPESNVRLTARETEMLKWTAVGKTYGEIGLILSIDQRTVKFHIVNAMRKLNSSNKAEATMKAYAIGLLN
As to the kind of experiment: EMSA. As to conditions: EMSA: 40 ng probe, 0-100 ng QscR in 10 ul; 20 mM Tris pH 7.5, 50 mM KCl, 10% glycerol, 1 mM DTT, 20 uM 3OC12-HSL; 20 min room temperature; 5% native gel at ….

Turning to “CTCTCGTGTGAAGCCATTGCTCTGATCTTTTCGGACGTTTCTTCGAGCCTAGCAAGGGTCCGGGTTCACCGAAATCTATCTCATTTGCTAGTTATAAAATTATGAAATTTGCATAAATTCTTCAGCTTCCTATTTGGAGGAAGTGAAGATGATCGTACAAATTGGTCGGCGCGAAGAGTTCGATAAAAAACTGCTGGGCGAGATGCACAAGTTGCGTGCTCAAGTGTTC (double strand) [lasI promoter PCR fragment]”, the binding entry is “no binding”.
With “GCTTCACCGAGCAGAACTCCGGGCTGATCTACCGCGGGCAATCAGGCGGAATGAACGAAGCGTTCTCCGACATGGCCGGCGAGGCTGCCGAGTTCTATATGCGCGGCAAGAACGACTTCCTGATCGGCTACGACATCAAGAAGGGCAGCGGTGCGCTGCGCTACATGGACCAGCCCAGCC (double strand) [lasB promoter PCR fragment]” the entry was “no binding”.
